In PMC11939848, “Aptamer-Based Graphene Field-Effect Transistor Biosensor for Cytokine Detection in Undiluted Physiological Media for Cervical Carcinoma Diagnosis”:

Experiments:
TNF-alpha [1] = target: T1, TNF-alpha (UniProt P01375 77-233); experiment: graphene FET (Hill-Langmuir fit); 1000 Da PEG, 1x PBS; 1x PBS, artificial sweat (10x diluted or undiluted) or undiluted lavage fluid; aptamer immobilized on graphene; pH and temperature not stated; conditions: protein: commercial; chain copies: 3; G-quadruplex, two G-tetrads
T1 sequence (P01375 77-233): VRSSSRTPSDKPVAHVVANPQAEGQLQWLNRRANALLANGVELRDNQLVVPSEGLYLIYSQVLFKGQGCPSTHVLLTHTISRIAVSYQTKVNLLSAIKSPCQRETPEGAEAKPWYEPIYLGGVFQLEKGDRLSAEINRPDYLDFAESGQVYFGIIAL

TNF-alpha [2] = target: T1, TNF-alpha; experiment: graphene FET (Hill-Langmuir fit); 2000 Da PEG, 1x PBS; 1x PBS, artificial sweat (10x diluted or undiluted) or undiluted lavage fluid; aptamer immobilized on graphene; pH and temperature not stated; conditions: protein: commercial; chain copies: 3; G-quadruplex, two G-tetrads
TNF-alpha [3] = target: T1, TNF-alpha; experiment: graphene FET (Hill-Langmuir fit); no PEG, 1x PBS; 1x PBS, artificial sweat (10x diluted or undiluted) or undiluted lavage fluid; aptamer immobilized on graphene; pH and temperature not stated; conditions: protein: commercial; chain copies: 3; G-quadruplex, two G-tetrads
IL-6 [4] = target: T2, IL-6 (UniProt P05231 30-212); experiment: graphene FET (Hill-Langmuir fit); 2000 Da PEG, PBS; 1x PBS, artificial sweat (10x diluted or undiluted) or undiluted lavage fluid; aptamer immobilized on graphene; pH and temperature not stated; conditions: protein: commercial
T2 sequence (P05231 30-212): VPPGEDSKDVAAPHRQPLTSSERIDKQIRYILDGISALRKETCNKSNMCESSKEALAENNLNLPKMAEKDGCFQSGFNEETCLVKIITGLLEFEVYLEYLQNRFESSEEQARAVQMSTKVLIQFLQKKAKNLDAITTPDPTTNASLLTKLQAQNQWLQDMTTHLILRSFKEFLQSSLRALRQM

IL-6 [5] = target: T2, IL-6; experiment: graphene FET (Hill-Langmuir fit); 1000 Da PEG, PBS; 1x PBS, artificial sweat (10x diluted or undiluted) or undiluted lavage fluid; aptamer immobilized on graphene; pH and temperature not stated; conditions: protein: commercial
IL-6 [6] = target: T2, IL-6; experiment: graphene FET (Hill-Langmuir fit); 1000 Da PEG, undiluted lavage fluid; 1x PBS, artificial sweat (10x diluted or undiluted) or undiluted lavage fluid; aptamer immobilized on graphene; pH and temperature not stated; conditions: protein: commercial
IL-6 [7] = target: T2, IL-6; experiment: graphene FET (Hill-Langmuir fit); 2000 Da PEG, undiluted lavage fluid; 1x PBS, artificial sweat (10x diluted or undiluted) or undiluted lavage fluid; aptamer immobilized on graphene; pH and temperature not stated; conditions: protein: commercial

B1: TNF-alpha aptamer (ssDNA)
DNA: TGGTGGATGGCGCAGTCGGCGACAA
modifications: 5'-NH2
Kd (TNF-alpha [1]): 1.52 ± 0.35 nM | Kd (TNF-alpha [2]): 1.21 ± 0.44 nM | Kd (TNF-alpha [3]): 2.82 ± 0.19 nM

B2: IL-6 aptamer (ssDNA)
DNA: GGTGGCAGGAGGACTATTTATTTGCTTTTCT
modifications: 5'-NH2
Kd (IL-6 [4]): 0.188 ± 0.052 nM | Kd (IL-6 [5]): 0.084 ± 0.023 nM | Kd (IL-6 [6]): 0.57 ± 0.096 nM | Kd (IL-6 [7]): 0.194 ± 0.023 nM
